Consider 18 molecules from US20260069689A1 (Regeneron, published 2026).

Residue numbers refer to the chain shown, from its start.

The labels stand for the following.
B1: mAb15151 (antibody, V domains shown)
VH: QVQLVESGGGVVQPGRSLRLSCAASGFVFNSYGMHWVRQAPGKGLEWVAVLWYEGSKNYYADSVKGRFTISRDNSKNTLYLQMNSLRAEDTAVYYCARHGSGSFFGYYLDYWGQGTLVTVSS
VL: DIQMTQSPSSLSASVGDRVTITCRASHNINDFLNWYQQKPGKAPRLLIYAASSLQSGVPSRFSGSGSGTDFTLTISSLQPEDFATYYCQESYTTPPTFGQGTKLEIKR
B2: mAb15150 (antibody, V domains shown)
VH: EVQLVETGGGLIQPGGSLRLSCAAPGFIVSSNYMSWVRQAPGKGLEWVSLLYPGGSTYYADSVKGRFTISRDNSKNTLYLQMNSLRADDTAVYYCARVLPIVEDHFDYWGQGTLVTVSS
VL: DIQLTQSPSFLSASVGDRVTITCRASQGMSSYLAWYQKKPGKAPKLLIYGATILQSGVPSRFSGSGSGTEFTLTISSLQPEDFATYYCQQLNSDPLYMYTFGQGTKLEIKR
B3: mAb15161 (antibody, V domains shown)
VH: EVQLVESGGGLVQPGGSLRLSCAASGFTFSSYEMNWVRQAPGKGLEWVSYISSSGSILYYADSVKGRFTASRDNAKNSLYLQMNSLRAEDTGVYYCARREYQLLRPFEFWGQGTLVTVSS
VL: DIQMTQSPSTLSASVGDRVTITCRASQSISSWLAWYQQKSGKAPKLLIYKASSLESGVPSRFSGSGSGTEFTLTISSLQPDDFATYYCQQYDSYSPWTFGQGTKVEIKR
B4: mAb15162 (antibody, V domains shown)
VH: EVQLVETGGGLIQPGGSLRLSCAASEFIVSRNYMSWVRQAPGKGLEWVSLIYSGGSTYYADSVKGRFTISRDNSKNILYLQMNSLRAEDTAVYYCARDRGGISDYWGQGTLVTVSS
VL: DIQMTQSPSSLSASVGDRVTITCQASQDINKYLNWFQQKPGKAPKLLIYDASNLETGVPSRFSGSGSGTDFTFTISSLQPEDIATYYCQQYDNLPRTFGQGTKLEIKR
B5: mAb14284 (antibody, V domains shown)
VH: QITLKESGPTLVKPTQTLTLTCTFSGFSFSTSGVGVGWIRQPPGKTLEWLALIYWDDDKRYSPSLKSRLTITKDTSKNQVVLTMTNMDPVDTATYFCAHHGIPTIFGYWGQGALVTVSS
VL: QSALTQPASVSGSPGQSITISCTGTSSDLGVFNYVSWYQQHPGKAPKLMIYEVTNRPSGVSNRFSGSKSGNTASLTISGLQAEDEADYYCSSYTTSSTVFGGGTKLTVLG
B6: mAb14235 (antibody, V domains shown)
VH: QITLKESGPTLVKPTQTLTLTCTFSGFSLNTGGVGVGWIRQPPGNALEWLALIYWDDDKRYNPSLKTRLTISKDTSKNQVVLTMTNMDPVDTATYFCAHLTIAVIVDFWGQGTLVTVSS
VL: B5 VL with G24A, L29V, V31T, F32Y, Y38F, Q40H, S96T, T98I
B7: mAb14294 (antibody, V domains shown)
VH: EVQLVESGGGLVQPGGSLRLSCAASGFTFSNHWMDWVRQAPGKGLVWVSRINSDGSSTDYADSVRGRFTMSRDNAKNTLYLQMSSLRAEDTAVYYCAREGMIFGAVIIPGWYFDLWGRGALVTVSS
VL: EIVLTQSPGTLSLSPGERATLSCRASQSVSSSQLAWYQQKPGQAPRLLIYGASSRATGIPDRFSGSGSGTDFTLTISRLEPEDFAVYYCQQYDSFGQGTKLEIKR
B8: mAb14258 (antibody, V domains shown)
VH: QLQLQESGPGLVKPSETLSLICTGSGDSISSSHYYWGWIRQPPGKGLEWIGSTYFSGSTYYNPSLKSRVSISVDTSKNQVSLKLISVTAADTAVYYCAREMGATLGDYWGPGTLVTVSS
VL: QSVLTQPPSASGTPGQRVTISCSGSSSNIGNNYVYWYQQFPGTTPRLLIYRNNERPSGVPDRFSGSKSGTSASLVISGLRSEDEADYYCAAWDDSLSAHYVFGTGTKVTVLG
B9: mAb14312 (antibody, V domains shown)
VH: EVQLVESGGGLVQPGGSLRLSCAASGFTVSRSYMTWVRQAPGKGLEWVSVIFTGGRTDHADSVKGRFTISRHNSKNTLYLQMNSLRTEDTAVYYCARVAIVGATGAFDIWGQGTMVTVSS
VL: QSVLTQPPSVSGAPGQRVTISCTGSSSNIGAGDDVHWYQQLPGTAPKLLIYGNSNRPSGVPDRFSGSKSGTSASLAITGLQAEDEADYYCQSYDSSLSGSVVFGGGTKLTVLG
B10: mAb15159 (antibody, V domains shown)
VH: EVQLVESGGGLVQPGGSLRLSCAASGITVSSNYMTWVRQAPGKGLEWVSLIYSGGSTFYADSVRGRFTISRDNSKNTLYLQMNSLRAEDTAVYYCARDLVVYGMDVWGQGTTVTVSS
VL: DIQLTQSPSSLSASVGDRVTITCRASQGISSYLAWYQQKPGKAPKLLIYAASTLQSGVPSRFSGSGSGTDFTLTISSLQPEDFATYYCQHLNSDPHTFGQGTKLEIKR
B11: mAb15170 (antibody, V domains shown)
VH: B10 VH with S25T, T35S, R64K, D72H, N83S, V101D, Y102F
VL: B10 VL with S31N, A84G, H90Q, P95S, H96P, L104V
B12: mAb15157 (antibody, V domains shown)
VH: EVQLVESGGALVQPGGSLRLSCAASGFPFTIYAMTWVRQAPGKGLEWVSVITGSGDSTYYADSVKGRFTISRDNSKNTLYLQMNSLRAEDTAVYYCVKTGEGFFYYYYGMDVWGQGTTVTVSS
VL: QSVLTQPPSVSAAPGQKVTISCSGSSSNIGNSYISWYQQLPGTAPKLLIYVNNKRPSGIPDRFSGSKSGTSATLGITGLQTGDEADYYCGTWDSSLSAGVFGSGTKVTVLG
B13: mAb15163 (antibody, V domains shown)
VH: EVQLVETGGGLIQPGESLRLSCAASGFIVSTNYMNWVRQAPGKGLEWVSVIYRGGSTYYADSVKGRFTISRDNSKNTLFLQMNSLRAEDTAVYYCARGHEDFDYDTPASGAFDIWGQGTMVTVSS
VL: QSALTQPPSASGSPGQSVTISCTGTSSDVGGHNYVSWYQQHPGKAPKVMIYEVSKRPSGVPDRFSGSKSGNTASLTVSGLQAEDEADYYCSSYAGSNKFVFGTGTKVTVLG
B14: mAb14283 (antibody, V domains shown)
VH: QVQLQESGPGLVKPSGTLSLTCDVSGGSISSNNWWSWVRQRPGKGLQWIGEIYHNENTNYNPSLKSRVIMSIDKSKNQFSLKLTSVTAADTAVYYCARGDVLDWFDPWGQGTLVTVSS
VL: QSALTQPASVSGSPGQSTTISCTGTSSDVGGYNYVSWYQQYPGKAPKLMIYDVTNRPSGVSHRFSGSKSGNTASLTISGLQAEDEADYYCSSYTSSSTVIFGGGTKLTVLG
B15: mAb15164 (antibody, V domains shown)
VH: EVQLVESGGGLVQPGGSLRLSCAASGFAVSSNYMTWVRQAPGKGLEWVATIYSGDSTYYADSVKGRFTISRHNSKNTLSLQMNSLRADDTAIYYCARLSGVLSGTYNGAFDIWGQGTMVTVSS
VL: QSALTQPASVSGSPGQSITISCTGTSSDFGNYNIVSWYQQHPGQAPKVMIYEGNKRPSGVSNRFSGSKSGHTASLTISGLQAEDEADYYCSSYAGSSTWVFGGGTKLTVLG
B16: mAb15165 (antibody, V domains shown)
VH: EVQLVESGGGLVQPGGSLRLSCAASGFTVSSNYMSWVRQAPGKGLEWVSAIYSGDSTYYADSVKGRFTISKDNSKNTLYLQMNSLRGEDTAVYYCARLGGALQAYDGAFDYWGQGTLATVSS
VL: B15 VL with N31S, I34L, Q44K, V48L, N62I, H71N
B17: mAb15166 (antibody, V domains shown)
VH: EVQLVESGGGLVQPGGSLRLSCAASGFTVTSNYMSWVRQAPGKGLEWVSAIYSGESTYYADSVKGRFTISRDSSKNTLYLQMNSLRVEDTAVYYCASIHDYSNYVGGFDPWGQGTLVTVSS
VL: B15 VL with T25P, N31S, I34L, Q44K, V48L, N54T, H71N
B18: mAb15158 (antibody, V domains shown)
VH: EVQLVESGGGLVQPGGSLRLSCAASGFSFSSNWMSWVRQAPGKGLEWVGNINQDGSEKYYVDSVEGRFTISRDNAKKSLYLQMNSLRAEDTAVYYCARDLGVLWFGDFVDWGQGALVTVSS
VL: DIQMTQSPSSLSASVGDRVTITCRASQAISNSLAWYQQKPGKAPKLLLYAASTLESGVPSRFSGSGSGTDYTLTISSLQPEDFATYYCLQYYGSPRTFGQGTKVEIKR

The target in this experiment is SARS-COV-2 RBD extracellular domain expressed with a C-terminal myc-myc-hexahistidine tag (SARS-CoV-2). Put plainly: SPR (Biacore), mAb captured by anti-human Fc, RBD-mmH in solution, 25 C.
On to B1, for which the dissociation constant (Kd) (usually the constant that tells how readily two partners part at equilibrium) amounted to 3.89 nM; the koff – broadly, a measure of how fast the partners let go of each other – was determined as 0.000778 s⁻¹; the kon – broadly, the rate constant with which the complex forms – is 200000 M⁻¹ s⁻¹; the t½ (usually the time needed for the level to fall by half in the phase considered) turned out to be 14.8 min.
For B2, in that order: 0.0594 nM, 4.61e-05 s⁻¹, 774000 M⁻¹ s⁻¹ and 251 min.
For B3, in that order: 1.35 nM, 0.000234 s⁻¹, 173000 M⁻¹ s⁻¹ and 49.3 min.
For B4, in that order: 7.3 nM, 0.00085 s⁻¹, 116000 M⁻¹ s⁻¹ and 13.6 min.
In turn, B5 had a Kd of 0.824 nM, a koff of 0.000549 s⁻¹, an on-rate (kon) of 666000 M⁻¹ s⁻¹ and a t½ of 21 min.
The molecule B6 came in with a Kd of 1.33 nM, a koff of 0.00105 s⁻¹, a kon of 789000 M⁻¹ s⁻¹ and a t½ of 11 min.
B7 had a Kd of 0.914 nM, a koff of 0.000548 s⁻¹, a kon of 600000 M⁻¹ s⁻¹ and a t½ of 21.1 min.
The corresponding values for B8 are 0.854 nM, 0.00161 s⁻¹, 1.89e+06 M⁻¹ s⁻¹ and 7.2 min.
On to B9, for which the affinity, expressed as Kd, was 0.606 nM; the koff worked out at 0.000929 s⁻¹; the kon was determined as 1.53e+06 M⁻¹ s⁻¹; the t½ stood at 12.4 min.
The corresponding values for B10 are 2.66 nM, 0.00013 s⁻¹, 48900 M⁻¹ s⁻¹ and 88.8 min.
For B11, in that order: 0.1 nM, 1.53e-05 s⁻¹, 200000 M⁻¹ s⁻¹ and 756 min.
Turning to B12, the Kd was 4.49 nM, the koff was determined as 0.00125 s⁻¹, the on-rate constant (kon) was determined as 278000 M⁻¹ s⁻¹ and the t½ is 9.3 min.
The corresponding values for B13 are 0.0779 nM, 1.67e-05 s⁻¹, 218000 M⁻¹ s⁻¹ and 693 min.
B14: the Kd came out at 1.08 nM, the koff was determined as 0.00158 s⁻¹, the kon stood at 1.46e+06 M⁻¹ s⁻¹ and the t½ is 7.3 min.
On to B15, for which the Kd came to 1.53 nM, the off-rate (koff) was determined as 0.000349 s⁻¹, the kon was found to be 228000 M⁻¹ s⁻¹ and the t½ was 33.1 min.
For B16, in that order: 0.393 nM, 0.000212 s⁻¹, 539000 M⁻¹ s⁻¹ and 54.6 min.
For B17, in that order: 21.7 nM, 0.00535 s⁻¹, 246000 M⁻¹ s⁻¹ and 2.2 min.
For B18, in that order: 0.779 nM, 8.12e-05 s⁻¹, 104000 M⁻¹ s⁻¹ and 142 min.
